Experimental data: the supplement of paper PMC10567573
± gives the standard deviation.

Assay: protein stability index of a GFP-peptide fusion (GPS, HEK-293T) (PSI 1-6); higher = more stable
[1] = treatment: DMSO, c terminus: a fixed tail appended
[2] = treatment: MLN4924 1 uM, 8 h, c terminus: a fixed tail appended
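Note: 24-mer peptide tiles fused after GFP, lentivirally expressed, FACS-sorted into six equal bins by GFP/DsRed ratio, decoded by Illumina sequencing, PSI is the read-weighted mean bin number.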

Sequence | protein stability index [1] | protein stability index [2] | protein stability index (treatment: DMSO, c terminus: native) | protein stability index (treatment: MLN4924 1 uM, 8 h, c terminus: native)
EVLSLGVQVPEAWEELLTMKVEAK [ZSCAN9] | 3.53 ± 0.67 | 3.45 ± 0.22 | – | –
EGSFNGSEKETMQFLNDRLASYLE [KRT33B] | 3.43 ± 0.14 | 3.34 ± 0.21 | – | –
QCLDKTNESALVKEKELSIELANI [MTUS2] | 4.79 ± 0.27 | 4.77 ± 0.22 | – | –
EPGGPGWLPESDCETVTCCLFSER [SMAD6] | 3.96 ± 0.35 | 4.16 ± 0.42 | – | –
VMYTIHMGCHGFRDPFECNMCGYH [IKZF1] | 2 ± 0.45 | 2.4 ± 1.3 | – | –
SGLRGGILIELAMRGRIYLEPPTM [GOLPH3L] | 3.09 ± 0.41 | 2.74 ± 0.76 | – | –
GMRDADYIAAFLHVLLPVALEFQP [HDAC6] | 3.02 ± 0.47 | 2.96 ± 0.42 | – | –
DSVPFHLGWNSTERSLRLQARYHD [MYORG] | 3.59 ± 0.24 | 3.51 ± 0.17 | – | –
GYWRVRLWNGDKYAATTTPFTPLH [TRIM39] | 2.08 ± 0.42 | 2.35 ± 0.93 | – | –
LVELPASFRELLTFFCTNATIHGA [SCNN1D] | 2.79 ± 0.38 | 2.63 ± 0.49 | – | –
NKRCKDKKKSILMKQLQQQQHSDK [ISL2] | 4.45 ± 0.18 | 4.5 ± 0.12 | – | –
GMQMAEDSKSLKTHQTQPGIRRAR [NET1] | 4.78 ± 0.36 | 4.69 ± 0.46 | – | –
GVSFHIDSAELEPGSQTAVKNSNR [FBXO34] | 4.71 ± 0.26 | 5.03 ± 0.38 | – | –
EYHQPQAPANVAKIQLRLAGQKRK [LOXL2] | 4.34 ± 0.43 | 4.54 ± 0.4 | – | –
CFLLTAMAYDQFLAICRPLTYSTR [OR3A1] | 2.89 ± 0.35 | 2.89 ± 0.69 | – | –
SKGMQDFNYLHTNCFEITLELSCD [CPN1] | 2.97 ± 0.48 | 2.72 ± 0.58 | – | –
ATSATSHTRSLNSIIHQMEKFSSS [FBF1] | 3.34 ± 0.28 | 3.59 ± 0.39 | – | –
EAQLSLIRDIRRRGKNKMAAQNCR [NFE2L1] | 3.61 ± 0.35 | 3.58 ± 0.22 | – | –
TSPSPERSLLLKYARTPTLDPDTM [TRIM14] | 3.89 ± 0.66 | 4.29 ± 0.32 | – | –
SENVVNRMKEPSSPPPAPTSSTFG [CHCHD6] | 5.04 ± 0.2 | 5.3 ± 0.13 | – | –
FRQFGYQDSPGPHEALSRLWELCH [ZNF396] | 2.28 ± 0.28 | 2.31 ± 0.24 | – | –
RMTSSPSSIPRRDDFFRHESGEHF [RAD54B] | 3.67 ± 0.25 | 3.68 ± 0.14 | – | –

Sequence | protein stability index [1] | protein stability index [2] | protein stability index (treatment: DMSO, c terminus: native) | protein stability index (treatment: MLN4924 1 uM, 8 h, c terminus: native)
GVLDALHVLEGLFRTDPEAKVKLV [ZSWIM9] | 2.28 ± 0.23 | 2.25 ± 0.18 | – | –
PDTAPPSERPLEDLRLRLDHLGWV [RTN2] | 3.39 ± 0.44 | 3.24 ± 0.38 | – | –
LKLYEQWKNFDERKEMATILSKMP [CCNC] | 2.61 ± 0.59 | 2.62 ± 0.41 | – | –
FQSISLRKIQFNFPYFRSDRDKRD [CLCN6] | 2.3 ± 0.34 | 2.75 ± 0.52 | – | –
GYGIYYFIYSTWKGRTIYLEDIYV [SAT2] | 2.9 ± 0.16 | 2.78 ± 0.43 | – | –
LCVNYFFYGETVADYFATFVQREE [CDS1] | 3.4 ± 0.68 | 2.61 ± 0.99 | – | –
STQEPQSPREGEELKPEDKDPRDP [GNAS] | 5.59 ± 0.34 | 5.42 ± 0.48 | – | –
IVANTMPTHLSNGQMSTPETPQPS [HNF4A] | 4.43 ± 0.22 | 4.51 ± 0.15 | – | –
SEVESAVWYVKKFGRYLEHLEVKF [FBXO39] | 2.44 ± 0.22 | 2.47 ± 0.43 | – | –
FAFSNGYLASLCMCFGPKKVKPAE [SLC29A1] | 2 ± 0.36 | 2.34 ± 0.21 | – | –
EQEDPADYCKGGYHPVKIGDLFNG [SRPK2] | 3.9 ± 0.32 | 3.98 ± 0.47 | – | –
TLREITDQEHNVAALKQAIKDKEA [TEKT4] | 4.92 ± 0.27 | 4.88 ± 0.26 | – | –
KYPPDRECIYIIEAAPRQCIELYF [NETO1] | 3.13 ± 0.77 | 2.7 ± 1.3 | – | –
CLELVSCFVLFSLTHTHTHTPNHR [ANKRD44] | 2.7 ± 0.081 | 3.55 ± 0.097 | – | –
IRESRLFGAVVRWAEAECQRQQLP [BTBD1] | 2.5 ± 0.16 | 2.46 ± 0.13 | – | –
LAEIRCDLERQNQEYQVLLDVRAR [KRT34] | 3.57 ± 0.17 | 3.59 ± 0.13 | – | –
PDPTPPEPEEEILGSDDEEQEDPA [SRPK2] | 5.62 ± 0.33 | 5.53 ± 0.21 | – | –
GSDAEQSTSGQPYPTSDQEGDPGS [LCOR] | 5.53 ± 0.35 | 5.59 ± 0.28 | – | –
EELAYLKKNHEEEMKEFSSQLAGQ [KRT15] | 5.22 ± 0.41 | 5.05 ± 0.28 | – | –
YARQHCPLKNPTFLDYVRPRSWTC [SOAT1] | 2.12 ± 0.46 | 2.14 ± 0.53 | – | –
GGGGGGLPISTVREVALLRRLEAF [CDK4] | 3.19 ± 0.3 | 3.23 ± 0.34 | – | –
GDSDSALDSVSPCPSSPKQIHLDV [DLC1] | 4.8 ± 0.37 | 4.66 ± 0.35 | – | –

Sequence | protein stability index [1] | protein stability index [2] | protein stability index (treatment: DMSO, c terminus: native) | protein stability index (treatment: MLN4924 1 uM, 8 h, c terminus: native)
ILNFNDLMSSAVPMTPEDPSFWDC [AASDHPPT] | 2.71 ± 0.31 | 2.92 ± 0.2 | – | –
PYGPPPDAVQTSLMDEGASSEKKR [RBBP5] | 5.37 ± 0.25 | 5.463 ± 0.047 | – | –
NLISLLALRVLAEQNIIPSATNVT [TENT5C] | 2.94 ± 0.39 | 3.12 ± 0.36 | – | –
PFNGDCRITKDNRRHCQACRLKRC [VDR] | 3.19 ± 0.3 | 3.4 ± 0.34 | – | –
PWDESGSGCLPPEPLFEAGDATLA [FOXJ1] | 5.07 ± 0.39 | 5.08 ± 0.23 | – | –
GEKPFECRQRLIFEQTPALTKHEW [ZNF8] | 3.04 ± 0.85 | 2.93 ± 0.18 | – | –
ETRVTSGSMEALNLKQLRKRGSIP [PPFIA4] | 4.6 ± 0.07 | 4.75 ± 0.22 | – | –
QGDLASLRAELQGHHAEKLPAGAG [TNFSF13B] | 4.72 ± 0.2 | 4.76 ± 0.18 | – | –
LVSPSNNSKEDAFSGTDWMLEKMD [ATF4] | 4.66 ± 0.26 | 4.64 ± 0.23 | – | –
GAGEGAAASPELSALEEAFRRFAV [TPPP] | 3.58 ± 0.58 | 3.74 ± 0.44 | – | –
ELKRRVAEELALEQAKKESEDQKR [CHCHD3] | 4.14 ± 0.32 | 4.37 ± 0.082 | – | –
HLADLVSYSIQKVIGFAKMIPGFR [VDR] | 4.2 ± 0.43 | 4.18 ± 0.25 | – | –
YQKAAEEVEAKFKRYESHPVCADL [CHCHD3] | 4.26 ± 0.14 | 4.25 ± 0.28 | – | –
PLFTPQSPVTATLSDEDDGFVDLL [CDC25A] | 4.65 ± 0.13 | 4.43 ± 0.38 | – | –
YAHQMVRTDSREQKLDAFLQPLSK [MLH1] | 2.98 ± 0.3 | 3.35 ± 0.35 | – | –
IANCKLFRLQLQQGLFRIRVHSP [GAN] | – | – | 3.45 ± 0.51 | 2.6 ± 0.38
QDIAQEISEAFSQRVGFGDDFDED [CHMP4C] | 5.62 ± 0.21 | 5.5 ± 0.18 | – | –
HLVEETRIHVLPSLNPDGYEKAYE [CPXM2] | 4.46 ± 0.15 | 4.34 ± 0.046 | – | –
PLNCAPCPRRSEPVVQCQYPSGAE [IRX6] | 3.93 ± 0.14 | 3.94 ± 0.12 | – | –
SIQMNVAEVSWEPGRREGCDICAG [RPS21] | 2.7 ± 0.92 | 3.35 ± 1.3 | – | –
DLEELSLGPRDAGTRGRLESAQAT [ARFIP2] | 5.14 ± 0.083 | 5.06 ± 0.1 | – | –
